From the supplement of paper PMC10126150
± gives the standard deviation of the averaged measurements.

These sequences were tested on ATP (assay: switch fluorescence ratio, 500 uM ATP over buffer (Cy3 cluster intensity, sum of 5 cycles each) (fold (ratio)); higher = stronger signal-on switching upon ATP binding; sequences stand for … in TCGTCGGCAGCGTCAGATGTGTATAAGAGACAGTTTTTTTTTTTTTTTTTTTTTTTTT…TC). Settings: aptamer strand: ATP DNA aptamer (quencher-CACCTGGGGGAGTATTGCGGAGGAAGG + anchor), 100 nM annealed; ATP concentration: 500 uM.
In short: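 Clusters carrying Cy3-labelled switching strands on a modified Illumina MiSeq flow-cell were annealed to 100 nM quencher-labelled ATP aptamer and imaged in selection buffer. They were imaged again after 15 min with 500 uM ATP at 22 °C, over five buffer/ATP cycles with NaOH stripping and re-annealing in between. For each cluster, the fluorescence ratio is the summed Cy3 intensity of the target cycles divided by that of the buffer cycles, averaged per switch-domain sequence. Clusters outside 100-1000 RFU were left out.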
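Also: ATP exposure 15 min at 22 °C before imaging.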

Row | Sequence | switch fluorescence ratio
1 | CATGTGGGGG | 0.985 ± 0.027
2 | CATGTGTGGG | 1.01 ± 0.029
3 | CATGTTGGCT | 1.012 ± 0.0039
4 | CATGTTGGTT | 0.992 ± 0.032
5 | CATTAAGGTT | 0.996 ± 0.01
6 | CATTAATCAT | 0.995 ± 0.048
7 | CATTAATGTA | 0.9977 ± 0.0033
8 | CATTAGAGAC | 1.03 ± 0.012
9 | CATTAGGCAA | 1.696 ± 0.0032
10 | CATTAGGCTG | 1.02 ± 0.015
11 | CATTAGGTGT | 1.16 ± 0.037
12 | CATTATCACG | 1.075 ± 0.01
13 | CATTATGGGA | 1.009 ± 0.0063
14 | CATTCCCTGA | 0.981 ± 0.011
15 | CATTCGGGGG | 0.997 ± 0.016
16 | CATTCGTCGC | 1.12 ± 0.026
17 | CATTCTGTGT | 1.019 ± 0.0023
18 | CATTGAAAGA | 1.01 ± 0.038
19 | CATTGAAGTG | 0.986 ± 0.053
20 | CATTGAATAT | 0.996 ± 0.043
21 | CATTGAATCT | 1.02 ± 0.02
22 | CATTGACCTT | 1.23 ± 0.067
23 | CATTGCAGTG | 1.03 ± 0.02
24 | CATTGCTTTT | 0.991 ± 0.024
25 | CATTGGACCT | 1.29 ± 0.089

Row | Sequence | switch fluorescence ratio
26 | CATTGGAGCA | 1.027 ± 0.0086
27 | CATTGGGGAG | 1.01 ± 0.026
28 | CATTGGGGGA | 0.983 ± 0.014
29 | CATTGGGTTG | 0.9633 ± 0.0019
30 | CATTGGTAAT | 1.018 ± 0.0059
31 | CATTGGTCAT | 0.995 ± 0.045
32 | CATTGTAAAG | 1.02 ± 0.033
33 | CATTGTGGGT | 0.975 ± 0.019
34 | CATTGTTATC | 1.08 ± 0.085
35 | CATTGTTGAC | 0.961 ± 0.02
36 | CATTTAATGG | 0.997 ± 0.028
37 | CATTTATAAT | 1.03 ± 0.02
38 | CATTTATCCT | 1.07 ± 0.024
39 | CATTTATGGG | 1.015 ± 0.0031
40 | CATTTCAGGT | 1.03 ± 0.069
41 | CATTTCGGGT | 0.992 ± 0.034
42 | CATTTCTGAG | 1.008 ± 0.0061
43 | CATTTCTGTT | 1.004 ± 0.0047
44 | CATTTGAAGA | 1.01 ± 0.019
45 | CATTTGACGG | 0.995 ± 0.024
46 | CATTTGAGGG | 0.988 ± 0.034
47 | CATTTGGAAG | 1.02 ± 0.061
48 | CATTTGGGCT | 1.03 ± 0.039
49 | CATTTTAGGC | 1.04 ± 0.067
50 | CATTTTCTAA | 1.04 ± 0.047

Row | Sequence | switch fluorescence ratio
51 | CATTTTGGGA | 0.979 ± 0.03
52 | CATTTTGGTC | 1.002 ± 0.0039
53 | CATTTTGTGC | 0.988 ± 0.052
54 | CATTTTGTTT | 0.998 ± 0.054
55 | CATTTTTGGG | 0.98798 ± 0.00089
56 | CATTTTTTTT | 0.995 ± 0.02
57 | CCAAAAGGTT | 1.01 ± 0.017
58 | CCAAAATTGG | 1.018 ± 0.0052
59 | CCAAAGAATT | 1.03 ± 0.059
60 | CCAAAGATAT | 1.09 ± 0.03
61 | CCAAAGCCTC | 2.69 ± 0.21
62 | CCAAAGGGCC | 1.01 ± 0.071
63 | CCAAAGGGGT | 1.06 ± 0.046
64 | CCAAAGTACG | 1.25 ± 0.018
65 | CCAACATGGG | 1.03 ± 0.02
66 | CCAACGGCCA | 1.2 ± 0.049
67 | CCAACGGGGG | 1.061 ± 0.0019
68 | CCAAGCAGGG | 1.66 ± 0.059
69 | CCAAGGGAAA | 0.9822 ± 0.0032
70 | CCAAGGGGGA | 1.09 ± 0.1
71 | CCAAGGTTCG | 0.945 ± 0.053
72 | CCAAGTAATT | 1.2 ± 0.019
73 | CCAAGTAGGC | 1.13 ± 0.022
74 | CCAAGTGAC | 1.26 ± 0.028
75 | CCAAGTGCGG | 1.01 ± 0.029

Row | Sequence | switch fluorescence ratio
76 | CCAAGTTGCC | 0.9929 ± 0.0092
77 | CCAATATTTA | 0.994 ± 0.03
78 | CCAATCAGGT | 1.08 ± 0.097
79 | CCAATGGTGA | 1.16 ± 0.068
80 | CCAATTAATC | 1.03 ± 0.032
81 | CCAATTTTTA | 1.01 ± 0.03
82 | CCACCTATCT | 1.09 ± 0.052
83 | CCACGAATT | 1.012 ± 0.0096
84 | CCACGGCAGG | 1.229 ± 0.011
85 | CCACGGGATT | 1.08 ± 0.035
86 | CCACTAATGG | 1.03 ± 0.013
87 | CCACTATTAG | 1.03 ± 0.021
88 | CCACTCCGGG | 1.192 ± 0.0055
89 | CCACTCTGGG | 0.9984 ± 0.0068
90 | CCACTGATCG | 1.02 ± 0.022
91 | CCACTGGGCA | 1.02 ± 0.042
92 | CCACTGGGTA | 1.054 ± 0.0042
93 | CCACTGTTGG | 0.992 ± 0.029
94 | CCAGA | 1.022 ± 0.006
95 | CCAGAAAAGG | 1.31 ± 0.47
96 | CCAGAAAGGA | 0.97 ± 0.029
97 | CCAGAAAGTG | 1.26 ± 0.38
98 | CCAGAAGTGA | 1.08 ± 0.018
99 | CCAGAGGGTG | 1.45 ± 0.52
100 | CCAGAGGTAA | 1.04 ± 0.027

Row | Sequence | switch fluorescence ratio
101 | CCAGCACTTT | 1.008 ± 0.002
102 | CCAGCATGGG | 1.02 ± 0.015
103 | CCAGCGGCCA | 1.02 ± 0.025
104 | CCAGGAACGA | 0.986 ± 0.028
105 | CCAGGATTGG | 1 ± 0.006
106 | CCAGGCTGAG | 1.05 ± 0.022
107 | CCAGGGGCGA | 1.75 ± 0.9
108 | CCAGGGGGAC | 1.11 ± 0.018
109 | CCAGGGGGGA | 1.18 ± 0.048
110 | CCAGGGGGGT | 1.99 ± 1.4
111 | CCAGGGGGTG | 1.53 ± 0.32
112 | CCAGGTATAA | 1.06 ± 0.041
113 | CCAGGTGGGA | 3.53 ± 1.5
114 | CCAGTACCTT | 1.09 ± 0.03
115 | CCAGTAGTTT | 1 ± 0.013
116 | CCAGTGAGGG | 0.99 ± 0.026
117 | CCAGTGTTCT | 1.01 ± 0.024
118 | CCAGTTGGCA | 1 ± 0.031
119 | CCATAAGGGA | 1.028 ± 0.0055
120 | CCATAGAGAA | 1.02 ± 0.043
121 | CCATAGAGAT | 1.025 ± 0.0025
122 | CCATAGGATA | 1.0259 ± 0.00058
123 | CCATAGTTGC | 1.57 ± 0.086
124 | CCATATTGTG | 1.02 ± 0.016
125 | CCATATTTTT | 0.985 ± 0.015

Row | Sequence | switch fluorescence ratio
126 | CCATCATTCA | 1 ± 0.028
127 | CCATGGCGGT | 1.05 ± 0.033
128 | CCATGGGTGC | 1.34 ± 0.024
129 | CCATGGGTGG | 1.01 ± 0.011
130 | CCATGTCGTA | 0.995 ± 0.016
131 | CCATGTCTGT | 0.963 ± 0.015
132 | CCATGTGACT | 1.034 ± 0.0057
133 | CCATTAGTAT | 1.057 ± 0.0076
134 | CCATTGGGTA | 1.01 ± 0.036
135 | CCATTGTCCC | 1.05 ± 0.029
136 | CCATTTATTT | 1.02 ± 0.019
137 | CCATTTCTTT | 1.01 ± 0.067
138 | CCATTTGAGG | 0.987 ± 0.059
139 | CCATTTTGCC | 0.9878 ± 0.00023
140 | CCATTTTGCG | 1 ± 0.011
141 | CCATTTTTGC | 1 ± 0.022
142 | CCCAAACCTG | 1.13 ± 0.068
143 | CCCAGGAGTT | 1.94 ± 0.16
144 | CCCAGTAGCG | 1.03 ± 0.017
145 | CCCAGTTTTT | 1.006 ± 0.0054
146 | CCCATCCCCG | 1.2 ± 0.084
147 | CCCATGATGG | 1.01 ± 0.046
148 | CCCATGTTAA | 0.993 ± 0.018
149 | CCCATTTGCT | 1.02 ± 0.03
150 | CCCCAGTCAA | 3.3 ± 0.43

Row | Sequence | switch fluorescence ratio
151 | CCCCCACTGG | 1.1 ± 0.15
152 | CCCCGGGGTT | 1.88 ± 1.2
153 | CCCCGGGTAA | 1.33 ± 0.012
154 | CCCCTTTATT | 1.01 ± 0.057
155 | CCCGAATATT | 1.06 ± 0.029
156 | CCCGGAGTGT | 1.732 ± 0.0079
157 | CCCGGCCCAG | 1.05 ± 0.064
158 | CCCGGGAGTG | 1.02 ± 0.028
159 | CCCGGGGGCA | 1.21 ± 0.25
160 | CCCGGGTAAG | 1.03 ± 0.024
161 | CCCGGGTAGT | 1.12 ± 0.12
162 | CCCGGGTCTG | 1.04 ± 0.035
163 | CCCGGGTTAT | 0.9942 ± 0.0075
164 | CCCGGTATTG | 1.017 ± 0.007
165 | CCCGGTCGGC | 0.983 ± 0.0038
166 | CCCTAGGCTT | 1.13 ± 0.018
167 | CCCTCGCGGT | 1.78 ± 0.027
168 | CCCTGAATTG | 0.984 ± 0.053
169 | CCCTGAGGAT | 1.01 ± 0.031
170 | CCCTTGGTTA | 1.03 ± 0.032
171 | CCCTTGTACG | 1.03 ± 0.036
172 | CCGAAACTTG | 1.07 ± 0.038
173 | CCGAACGTTT | 2.31 ± 0.47
174 | CCGAAGGGTA | 1.1 ± 0.022
175 | CCGAATACCA | 1.61 ± 0.13

Row | Sequence | switch fluorescence ratio
176 | CCGAGAAGAG | 1.58 ± 0.021
177 | CCGAGCGCTT | 4.69 ± 1.4
178 | CCGAGTATGT | 1.19 ± 0.034
179 | CCGAGTTGTG | 1.05 ± 0.041
180 | CCGATGAGCT | 1.42 ± 0.035
181 | CCGATTTTTA | 0.977 ± 0.053
182 | CCGCAGGGTA | 1.259 ± 0.0092
183 | CCGCATGGGG | 1.49 ± 0.057
184 | CCGCATTGGG | 3.35 ± 0.93
185 | CCGCCGAGGT | 1.68 ± 0.034
186 | CCGCGACAAG | 2.18 ± 0.086
187 | CCGCTAGTGG | 1.196 ± 0.0036
188 | CCGCTCGAAT | 3.36 ± 0.38
189 | CCGCTCGGGG | 1.05 ± 0.053
190 | CCGCTGGATA | 1.51 ± 0.18
191 | CCGCTGTTTT | 1.16 ± 0.23
192 | CCGCTTTTTT | 1.28 ± 0.23
193 | CCGGAACATG | 1.23 ± 0.058
194 | CCGGACGGAG | 1.04 ± 0.026
195 | CCGGAGGGGT | 1.38 ± 0.018
196 | CCGGATATGG | 1.135 ± 0.0024
197 | CCGGCACCTG | 1.02 ± 0.025
198 | CCGGCATCGG | 1.02 ± 0.059
199 | CCGGCGGAAG | 1.003 ± 0.0011
200 | CCGGCGTGGC | 1.36 ± 0.082
